Source: the Human Domainome abundance scans (Beltran et al. 2025)
± gives the uncertainty stated by the source.

B1: Max-interacting protein 1, residues 70 to 120; numbered along this chain, P50539 (parent)
chain: STHNELEKNRRAHLRLCLERLKVLIPLGPDCTRHTTLGLLNKAKAHIKKLE
B2: Cyclin-F, residues 28 to 80; numbered along this chain, P41002 (parent)
chain: RNLTILSLPEDVLFHILKWLSVEDILAVRAVHSQLKDLVDNHASVWACASFQE

Variants of: B1
Experiment: abundance fitness (aPCA) (normalised: wild type 0, dead -1); higher = more abundant; growth selection in yeast, the domain comes from the species named
Settings: Homo sapiens

Row | Variant | abundance fitness
1 | L24D | -1 ± 0.17
2 | L24W | 0.244 ± 0.11
3 | L24M | -0.292 ± 0.16
4 | L24I | 0.137 ± 0.23
5 | D30P | 0.128 ± 0.076
6 | D30Y | -0.007 ± 0.077
7 | G38M | 0.118 ± 0.12
8 | G38S | -0.087 ± 0.089
9 | G38L | -0.326 ± 0.1
10 | G38A | -0.055 ± 0.085
11 | G38T | -0.069 ± 0.1
12 | G38C | -0.229 ± 0.13
13 | L6S | 0.096 ± 0.1
14 | L6F | -0.228 ± 0.17
15 | L6R | 0.172 ± 0.082
16 | L6I | -0.189 ± 0.2
17 | L6A | -0.171 ± 0.1
18 | L39R | -0.879 ± 0.1
19 | L39N | -1 ± 0.17
20 | L39D | -1.11 ± 0.23
21 | T35P | -0.103 ± 0.1
22 | T35Q | -0.176 ± 0.12
23 | T35L | -0.017 ± 0.092

Row | Variant | abundance fitness
24 | T35G | -0.031 ± 0.075
25 | K49T | -0.701 ± 0.15
26 | K49H | -1.02 ± 0.24
27 | K49Y | -0.746 ± 0.24
28 | K49D | -1.07 ± 0.25
29 | K49M | -0.692 ± 0.13
30 | K49N | -0.594 ± 0.25
31 | V23C | 0.287 ± 0.1
32 | V23N | 0.313 ± 0.2
33 | G28F | 0.069 ± 0.19
34 | G28Q | -0.092 ± 0.11
35 | G28E | -0.38 ± 0.11
36 | G28A | -0.284 ± 0.12
37 | G28R | 0.122 ± 0.083
38 | L18P | -0.542 ± 0.12
39 | L18F | -0.001 ± 0.15
40 | L18Y | -0.305 ± 0.16
41 | L18E | -1.07 ± 0.2
42 | E19C | -0.618 ± 0.13
43 | E19Y | -0.79 ± 0.21
44 | K42E | -0.716 ± 0.17
45 | K42H | -0.813 ± 0.19
46 | R10N | -0.18 ± 0.24

Row | Variant | abundance fitness
47 | R10D | -0.545 ± 0.13
48 | R10V | -0.101 ± 0.082
49 | H46G | 0.108 ± 0.077
50 | H46R | -0.055 ± 0.079
51 | R33S | -0.44 ± 0.097
52 | R33K | -0.117 ± 0.13
53 | R33F | -0.129 ± 0.12
54 | R33A | -0.338 ± 0.096
55 | R33T | -0.576 ± 0.12
56 | R33M | -0.394 ± 0.11
57 | E5I | -0.185 ± 0.17
58 | E5Y | -0.069 ± 0.14
59 | E5C | -0.991 ± 0.32
60 | I47S | -0.653 ± 0.093
61 | I47Y | -0.137 ± 0.17
62 | I47A | -0.582 ± 0.1
63 | I47R | -0.707 ± 0.087
64 | R15C | -0.801 ± 0.23
65 | R15L | -0.432 ± 0.1
66 | E51D | -0.197 ± 0.25
67 | E51M | 0.571 ± 0.46
68 | E51H | 0.368 ± 0.28
69 | P26T | 0.369 ± 0.12

Row | Variant | abundance fitness
70 | A12D | -0.438 ± 0.17
71 | A12G | -0.063 ± 0.08
72 | A12F | -0.826 ± 0.19
73 | L21C | -0.503 ± 0.14
74 | L21N | -1.17 ± 0.3
75 | R20I | -1.11 ± 0.23
76 | R20E | -0.929 ± 0.16
77 | R20W | -0.912 ± 0.15
78 | E7T | -0.468 ± 0.14
79 | T36D | -0.705 ± 0.13
80 | T36G | 0.134 ± 0.076
81 | T36P | -0.107 ± 0.12
82 | S1G | -0.21 ± 0.16
83 | S1L | -0.59 ± 0.15
84 | S1F | -0.095 ± 0.18
85 | A43V | -0.046 ± 0.086
86 | A43E | -0.58 ± 0.13
87 | A43N | -0.553 ± 0.17
88 | C17F | 0.048 ± 0.14
89 | C17N | -0.536 ± 0.28
90 | C17H | -0.683 ± 0.25
91 | T2C | -0.415 ± 0.12
92 | T2D | -0.209 ± 0.085

Row | Variant | abundance fitness
93 | H13L | 0.02 ± 0.092
94 | H13A | -0.515 ± 0.097
95 | H13P | 0.064 ± 0.15
96 | H13K | 0.26 ± 0.14
97 | H13V | -0.339 ± 0.093
98 | H13N | 0.093 ± 0.18
99 | K48G | -0.479 ± 0.085
100 | K48Y | 0.026 ± 0.22
101 | K48I | -0.351 ± 0.23
102 | K48Q | -0.457 ± 0.22
103 | K22P | -0.757 ± 0.15
104 | K22Y | -0.884 ± 0.36
105 | K22W | -1.08 ± 0.15
106 | L16H | -0.55 ± 0.23
107 | L16G | 0.274 ± 0.087
108 | L16S | 0.218 ± 0.1
109 | L16C | -0.247 ± 0.14
110 | L14M | -0.208 ± 0.11
111 | L14N | -0.735 ± 0.24
112 | L14C | -0.315 ± 0.13
113 | L14H | -0.143 ± 0.24
114 | H3M | 0.152 ± 0.12
115 | H3F | 0.168 ± 0.2

Row | Variant | abundance fitness
116 | H3C | 0.021 ± 0.14
117 | L37R | 0.253 ± 0.089
118 | L37Q | -0.154 ± 0.12
119 | K8N | -0.328 ± 0.18
120 | K8I | -0.536 ± 0.23
121 | N4L | -0.48 ± 0.092
122 | N4K | -0.168 ± 0.13
123 | I25R | -0.521 ± 0.098
124 | I25K | -0.995 ± 0.26
125 | I25Q | -0.561 ± 0.17
126 | I25S | -0.39 ± 0.091
127 | I25D | -0.852 ± 0.17
128 | H34L | 0.081 ± 0.084
129 | H34N | 0.052 ± 0.15
130 | H34Y | -0.406 ± 0.15
131 | H34S | 0.047 ± 0.086
132 | C31Q | 0.072 ± 0.12
133 | C31W | 0.19 ± 0.091
134 | C31Y | -0.13 ± 0.12
135 | L50F | 0.259 ± 0.19
136 | L50E | -0.636 ± 0.12
137 | L50A | -0.572 ± 0.11
138 | L50W | 0.023 ± 0.096

Row | Variant | abundance fitness
139 | L50M | -0.446 ± 0.17
140 | L50Y | -0.351 ± 0.31
141 | P29L | 0.533 ± 0.085
142 | P29I | 0.506 ± 0.17
143 | P29D | -0.387 ± 0.17
144 | P29S | 0.359 ± 0.092
145 | R11F | -0.396 ± 0.15
146 | R11A | -0.547 ± 0.1
147 | R11S | -0.375 ± 0.12
148 | T32I | 0.139 ± 0.12
149 | T32H | -0.168 ± 0.12
150 | A45R | -0.167 ± 0.087
151 | A45L | -0.097 ± 0.093
152 | A45F | -0.346 ± 0.15
153 | N41L | -0.711 ± 0.18
154 | N41F | -0.7 ± 0.3
155 | L27E | -0.423 ± 0.1
156 | L27C | -0.573 ± 0.17
157 | L40R | -0.698 ± 0.088

Variants of: B2
Experiment: as above
Settings: Homo sapiens

Row | Variant | abundance fitness
158 | D40A | -0.917 ± 0.13
159 | D40H | -0.552 ± 0.19
160 | D40E | -0.684 ± 0.17
161 | D40S | -0.432 ± 0.12
162 | S44H | 0.222 ± 0.32
163 | S44G | 0.05 ± 0.084
164 | S44L | -0.499 ± 0.1
165 | S44Y | -0.428 ± 0.15
166 | I25M | -0.346 ± 0.13
167 | I25N | -1.14 ± 0.41
